What is called Kd is a measure of binding affinity in units of concentration.

The record followed here is article PMC11995805 (BBA Advances, 2025).

The test deals with T1, Recombinant FLAG-tagged shroom-2 PDZ domain (1st-110th amino acid) (human, UniProt Q13796 1-110).
T1 sequence (looked up): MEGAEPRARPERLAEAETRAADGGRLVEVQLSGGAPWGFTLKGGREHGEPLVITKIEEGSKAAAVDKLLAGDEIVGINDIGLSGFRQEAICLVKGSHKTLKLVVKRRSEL
The experiment in a line: co-IP.

B1: His-tagged peptide of the carboxy terminus of claudin-11, NH2-…-COOH (peptide)
peptide: {H2N-Met-H2N-H2N-H2N-H2N-H2N-H2N}-PTHAKSAHV-OH
SMILES: CSCC[C@H](N)C(=O)N1CCC[C@H]1C(=O)N[C@H](C(=O)N[C@@H](Cc1c[nH]cn1)C(=O)N[C@@H](C)C(=O)N[C@@H](CCCCN)C(=O)N[C@@H](CO)C(=O)N[C@@H](C)C(=O)N[C@@H](Cc1c[nH]cn1)C(=O)N[C@H](C(=O)O)C(C)C)[C@@H](C)O
Take B1: the Kd stood at 3.36 µM.
